According to publication PMC10513324:

Key:
[1] = target: GST-Bicc1 (full-length, WT) (UniProt Q99MQ1); test: pull-down; full-length GST-Bicc1 (WT or mutD) on glutathione-Sepharose 4B beads, no RNA; HEK293T cell extracts with full-length or truncated ANKS3-Flag; 2 h at 4°C; western blot
[2] = test system: GST-Bicc1 WT; test: GST pull-down, fluorescent RNA; conditions: 100 pmol labeled RNA with 5-10 pmol GST-Bicc1 on glutathione beads, 1 h at 4 C, then HEK293T extract (20 mM Tris-HCl pH 7.4, 2.5 mM MgCl2, 100 mM NaCl, 5% …)
[3] = test system: GST-Bicc1 mutD; test: GST pull-down, fluorescent RNA; conditions: after incubation with ANKS3-Flag HEK293T extract; 100 pmol labeled RNA with 5-10 pmol GST-Bicc1 on glutathione beads, 1 h at 4 C; then HEK293T extract (20 mM Tris-HCl pH 7.4, 2.5 mM MgCl2, 100 mM NaCl, 5% …)
[4] = target: GST-Bicc1-KH (complete KH tandem repeat of Bicc1 fused to GST); test: pull-down; GST fusions of Bicc1 fragments (KH tandem repeat, KH1, KH2, IVS) on glutathione-Sepharose 4B beads; HEK293T cell extracts with ANKS3-Flag (full-length or ΔNter), without v5-ANKS6; 2 h at 4°C; western blot

Sequence of UniProt Q99MQ1 (Q99MQ1 whole entry, the tested form may be a part): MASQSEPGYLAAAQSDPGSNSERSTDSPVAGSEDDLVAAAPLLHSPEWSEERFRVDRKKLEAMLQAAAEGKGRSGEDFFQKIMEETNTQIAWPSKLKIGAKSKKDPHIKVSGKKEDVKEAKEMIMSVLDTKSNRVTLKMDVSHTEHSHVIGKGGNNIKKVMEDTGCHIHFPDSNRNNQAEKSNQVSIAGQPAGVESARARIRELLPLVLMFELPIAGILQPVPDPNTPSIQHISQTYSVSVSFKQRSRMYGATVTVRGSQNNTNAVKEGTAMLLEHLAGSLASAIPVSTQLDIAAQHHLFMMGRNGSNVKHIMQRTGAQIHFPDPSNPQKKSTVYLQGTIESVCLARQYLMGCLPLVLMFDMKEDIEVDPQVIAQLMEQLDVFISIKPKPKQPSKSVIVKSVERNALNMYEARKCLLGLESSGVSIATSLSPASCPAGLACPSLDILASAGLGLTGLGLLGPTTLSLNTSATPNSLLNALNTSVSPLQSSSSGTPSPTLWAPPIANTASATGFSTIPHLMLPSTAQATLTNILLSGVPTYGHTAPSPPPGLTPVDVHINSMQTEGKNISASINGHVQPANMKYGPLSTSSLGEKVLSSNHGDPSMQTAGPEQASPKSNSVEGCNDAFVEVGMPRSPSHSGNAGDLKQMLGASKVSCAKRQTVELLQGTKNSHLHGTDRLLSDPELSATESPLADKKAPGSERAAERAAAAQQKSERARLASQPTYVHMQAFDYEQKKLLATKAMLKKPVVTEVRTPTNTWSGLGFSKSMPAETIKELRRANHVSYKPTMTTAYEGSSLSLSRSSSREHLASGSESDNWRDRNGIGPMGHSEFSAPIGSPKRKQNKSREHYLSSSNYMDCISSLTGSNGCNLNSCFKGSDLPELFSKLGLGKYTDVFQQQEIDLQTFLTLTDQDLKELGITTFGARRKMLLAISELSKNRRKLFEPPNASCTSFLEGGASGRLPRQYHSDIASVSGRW

“ANKS3 ΔSAM-Flag (from UniProt Q6ZW76 1-656) (domain or fragment)” was tested, and the percent decrease of binding against full-length ANKS3-Flag [1] was 60%.

Dand5-3'UTR 66-110 RNA was tested, and the binding signal (% (reference)) [2] was 100 and the binding signal (% of RNA bound by WT GST-Bicc1) [3] was 231.

In the case of Dand5-3'UTR 226-270 RNA, the binding signal (% (relative to 66-110 RNA, inferred)) ([2]; with ANKS3-Flag HEK293T extract) is reported as 17.2.

B1: ANKS3 ΔNter-Flag (domain or fragment)
chain: MMDTYSPSLPKSLYRSPEKYEDLSSSDESCPAPQRQRPCRKKGVSIHEGPRALARITGIGLGGRAPRPRYEQAPPRGYVTFNSSGENPLEEEGLCCRDVTSPINERDVESSSSSSSREEHAFCANLGPVQSSSSSEGLARAQGLSSEASVESNEDSDHACKSSARKQAKSYMKTKNPDSQWPPRAATDREGFLAESSPQTQRAPYSGPQDLAALLEQIGCLKYLQVFEEQDVDLRIFLTLTESDLKEIGITLFGPKRKMTSAIARWHSSARPPGDALELAYADRLEAEMQELAIQLHKRCEEVEATRGQVCQEQELRAVVESCLLEQDRAREDLQARLRETWALARDAALVLDQLRACQAELSSRVRQDQPPGAATLGLAVPPADSKGWQASLQAMSLPELSGALEDRVREMGQALCLVTQSLEKLQVLNGKKWRET
In the case of B1, the fold change of binding against full-length ANKS3 [4] is reported as 8 fold.
